From article PMC3257248, “Wnt4 Participates in the Formation of Vertebrate Neuromuscular Junction” (PLoS ONE, 2012)

Molecular target: T1, MuSK (muscle specific kinase), full length (rat, UniProt Q62838 22-868)
T1 sequence (looked up): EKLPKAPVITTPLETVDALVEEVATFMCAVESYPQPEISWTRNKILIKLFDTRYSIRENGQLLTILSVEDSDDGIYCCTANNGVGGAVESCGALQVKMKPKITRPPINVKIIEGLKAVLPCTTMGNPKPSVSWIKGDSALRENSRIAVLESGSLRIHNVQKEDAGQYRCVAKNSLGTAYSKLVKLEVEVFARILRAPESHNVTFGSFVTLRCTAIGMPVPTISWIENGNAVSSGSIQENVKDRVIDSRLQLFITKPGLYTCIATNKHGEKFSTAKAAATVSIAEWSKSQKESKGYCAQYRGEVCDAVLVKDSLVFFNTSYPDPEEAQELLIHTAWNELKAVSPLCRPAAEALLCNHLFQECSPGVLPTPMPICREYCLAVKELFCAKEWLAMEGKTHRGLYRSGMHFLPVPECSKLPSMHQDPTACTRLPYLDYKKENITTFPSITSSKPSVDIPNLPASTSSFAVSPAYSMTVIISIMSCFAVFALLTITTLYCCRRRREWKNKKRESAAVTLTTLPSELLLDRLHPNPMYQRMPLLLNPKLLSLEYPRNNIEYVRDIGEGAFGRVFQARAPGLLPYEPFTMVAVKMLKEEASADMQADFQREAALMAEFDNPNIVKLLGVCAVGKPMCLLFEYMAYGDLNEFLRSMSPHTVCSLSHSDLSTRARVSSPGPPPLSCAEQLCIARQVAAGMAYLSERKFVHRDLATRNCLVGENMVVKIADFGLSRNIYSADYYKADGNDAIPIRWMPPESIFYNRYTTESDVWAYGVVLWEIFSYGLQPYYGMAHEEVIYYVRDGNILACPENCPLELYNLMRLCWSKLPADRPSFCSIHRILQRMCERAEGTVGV
Assay: cell-based or functional assay

B1: HA-tagged Wnt4 (ligand, UniProt P22724 23-351, looked up)
chain: SNWLYLAKLSSVGSISEEETCEKLKGLIQRQVQMCKRNLEVMDSVRRGAQLAIEECQYQFRNRRWNCSTLDSLPVFGKVVTQGTREAAFVYAISSAGVAFAVTRACSSGELEKCGCDRTVHGVSPQGFQWSGCSDNIAYGVAFSQSFVDVRERSKGASSSRALMNLHNNEAGRKAILTHMRVECKCHGVSGSCEVKTCWRAVPPFRQVGHALKEKFDGATEVEPRRVGSSRALVPRNAQFKPHTDEDLVYLEPSPDFCEQDIRSGVLGTRGRTCNKTSKAIDGCELLCCGRGFHTAQVELAERCGCRFHWCCFVKCRQCQRLVEMHTCR
MuSK tyrosine phosphorylation (pTyr blot of HA immunoprecipitates, +Wnt4/-Wnt4 ratio) in HEK 293T cells cotransfected with HA-MuSK with or without Wnt4-HA: 2 fold
